Among the data in patent US20250257099A1 (priority 2022, published 2025) are IC50, plaque-neutralization test, MERS-CoV infection of Vero E6 cells and IC50, plaque-neutralization test, SARS-CoV-2 infection of Vero E6 cells values, retold here.

In assay [1] the target is MERS-CoV spike (S) protein (MERS-CoV) (UniProt K9N5Q8). Briefly: cell-based or functional assay.
Assay [2] concerns the target SARS-CoV-2 spike (S) glycoprotein (SARS-CoV-2) (UniProt P0DTC2). Briefly: cell-based or functional assay.

Consider “EK1 lipopeptide (EK1C4), cholesterol-conjugated”, for which, in assay [1], the IC50, plaque-neutralization test, MERS-CoV infection of Vero E6 cells came out at 8 nM. Moreover, in assay [2], the IC50, plaque-neutralization test, SARS-CoV-2 infection of Vero E6 cells was 80 nM.
